Measured values reported in paper PMC8298264, “Function of cofactor Akirin2 in the regulation of gene expression in model human neutrophil-like HL60 cells” (Bioscience Reports, 2021).

Test system: human HL60 cells
Assay: SWATH-MS proteomics, differential protein representation, akirin2 KO vs WT HL60 cells
Type: cell-based
Conditions: SWATH-MS, akirin2 KO vs WT HL60 cells; over-represented in KO
Outline: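 Read-out is label-free SWATH-MS protein area, globally normalized to total detected-protein area, with identifications held at 1% FDR against a library from information-dependent acquisition.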

Molecule | Fold Change | Log (Fold Change)
Non-secretory ribonuclease (protein, UniProt P10153 28-161, looked up) Non-secretory ribonuclease: KPPQFTWAQWFETQHINMTSQQCTNAMQVINNYQRRCKNQNTFLLTTFANVVNVCGNPNMTCPSNKTRKNCHHSGSQVPLIHCNLTTPSPQNISNCRYAQTPANMFYIVACDNRDQRRDPPQYPVVPVHLDRII | 2.742 | 0.4381
Azurocidin (protein, UniProt P20160 27-248, looked up) Azurocidin: IVGGRKARPRQFPFLASIQNQGRHFCGGALIHARFVMTAASCFQSQNPGVSTVVLGAYDLRRRERQSRQTFSISSMSENGYDPQQNLNDLMLLQLDREANLTSSVTILPLPLQNATVEAGTRCQVAGWGSQRSGGRLSRFPRFVNVTVTPEDQCRPNNVCTGVLTRRGGICNGDGGTPLVCEGLAHGVASFSLGPCGRGPDFFTRVALFRDWIDGVLNNPGP | 2.563 | 0.4087
Protein Churchill (protein, UniProt Q8WUH1 1-112, looked up) Protein Churchill: MCGDCVEKEYPNRGNTCLENGSFLLNFTGCAVCSKRDFMLITNKSLKEEDGEEIVTYDHLCKNCHHVIARHEYTFSIMDEFQEYTMLCLLCGKAEDTISILPDDPRQMTLLF | 2.847 | 0.4544
Serglycin (protein, UniProt P10124 28-158, looked up) Serglycin: YPTRRARYQWVRCNPDSNSANCLEEKGPMFELLPGESNKIPRLRTDLFPKTRIQDLNRIFPLSEDYSGSGFGSGSGSGSGSGSGFLTEMEQDYQLVDESDAFHDNLRSLDRNLPSDSQDLGQHGLEEDFML | 2.81 | 0.4488
Spartin (protein, UniProt Q8N0X7 1-666, looked up) Spartin: MEQEPQNGEPAEIKIIREAYKKAFLFVNKGLNTDELGQKEEAKNYYKQGIGHLLRGISISSKESEHTGPGWESARQMQQKMKETLQNVRTRLEILEKGLATSLQNDLQEVPKLYPEFPPKDMCEKLPEPQSFSSAPQHAEVNGNTSTPSAGAVAAPASLSLPSQSCPAEAPPAYTPQAAEGHYTVSYGTDSGEFSSVGEEFYRNHSQPPPLETLGLDADELILIPNGVQIFFVNPAGEVSAPSYPGYLRIVRFLDNSLDTVLNRPPGFLQVCDWLYPLVPDRSPVLKCTAGAYMFPDTMLQAAGCFVGVVLSSELPEDDRELFEDLLRQMSDLRLQANWNRAEEENEFQIPGRTRPSSDQLKEASGTDVKQLDQGNKDVRHKGKRGKRAKDTSSEEVNLSHIVPCEPVPEEKPKELPEWSEKVAHNILSGASWVSWGLVKGAEITGKAIQKGASKLRERIQPEEKPVEVSPAVTKGLYIAKQATGGAAKVSQFLVDGVCTVANCVGKELAPHVKKHGSKLVPESLKKDKDGKSPLDGAMVVAASSVQGFSTVWQGLECAAKCIVNNVSAETVQTVRYKYGYNAGEATHHAVDSAVNVGVTAYNINNIGIKAMVKKTATQTGHTLLEDYQIVDNSQRENQEGAANVNVRGEKDEQTKEVKEAKKKDK | 2.789 | 0.4455
Cystatin-F (protein, UniProt O76096 20-145, looked up) Cystatin-F: GPSPDTCSQDLNSRVKPGFPKTIKTNDPGVLQAARYSVEKFNNCTNDMFLFKESRITRALVQIVKGLKYMLEVEIGRTTCKKNQHLRLDDCDFQTNHTLKQTLSCYSEVWVVPWLQHFEVPVLRCH | 2.6697 | 0.4265

Same assay, conditions: akirin2 KO vs WT HL60 cells; sheet "Over-represented in KO"

Molecule | Fold Change | Log (Fold Change)
sp¦Q92945¦FUBP2_HUMAN (protein, UniProt Q92945 2-711, looked up) Far upstream element-binding …: SDYSTGGPPPGPPPPAGGGGGAGGAGGGPPPGPPGAGDRGGGGPGGGGPGGGSAGGPSQPPGGGGPGIRKDAFADAVQRARQIAAKIGGDAATTVNNSTPDFGFGGQKRQLEDGDQPESKKLASQGDSISSQLGPIHPPPRTSMTEEYRVPDGMVGLIIGRGGEQINKIQQDSGCKVQISPDSGGLPERSVSLTGAPESVQKAKMMLDDIVSRGRGGPPGQFHDNANGGQNGTVQEIMIPAGKAGLVIGKGGETIKQLQERAGVKMILIQDGSQNTNVDKPLRIIGDPYKVQQACEMVMDILRERDQGGFGDRNEYGSRIGGGIDVPVPRHSVGVVIGRSGEMIKKIQNDAGVRIQFKQDDGTGPEKIAHIMGPPDRCEHAARIINDLLQSLRSGPPGPPGGPGMPPGGRGRGRGQGNWGPPGGEMTFSIPTHKCGLVIGRGGENVKAINQQTGAFVEISRQLPPNGDPNFKLFIIRGSPQQIDHAKQLIEEKIEGPLCPVGPGPGGPGPAGPMGPFNPGPFNQGPPGAPPHAGGPPPHQYPPQGWGNTYPQWQPPAPHDPSKAAAAAADPNAAWAAYYSHYYQQPPGPVPGPAPAPAAPPAQGEPPQPPPTGQSDYTKAWEEYYKKIGQQPQQPGAPPQQDYTKAWEEYYKKQAQVATGGGPGAPPGSQPDYSAAWAEYYRQQAAYYGQTPGPGGPQPPPTQQGQQQAQ | 1.125 | 0.05126
sp¦Q99436¦PSB7_HUMAN (protein, UniProt Q99436 44-277, looked up) Proteasome subunit beta type-7: TTIAGVVYKDGIVLGADTRATEGMVVADKNCSKIHFISPNIYCCGAGTAADTDMTTQLISSNLELHSLSTGRLPRVVTANRMLKQMLFRYQGYIGAALVLGGVDVTGPHLYSIYPHGSTDKLPYVTMGSGSLAAMAVFEDKFRPDMEEEEAKNLVSEAIAAGIFNDLGSGSNIDLCVISKNKLDFLRPYTVPNKKGTRLGRYRCEKGTTAVLTEKITPLEIEVLEETVQTMDTS | 1.138 | 0.056
sp¦P11766¦ADHX_HUMAN (protein, UniProt P11766 2-374, looked up) Alcohol dehydrogenase class-3: ANEVIKCKAAVAWEAGKPLSIEEIEVAPPKAHEVRIKIIATAVCHTDAYTLSGADPEGCFPVILGHEGAGIVESVGEGVTKLKAGDTVIPLYIPQCGECKFCLNPKTNLCQKIRVTQGKGLMPDGTSRFTCKGKTILHYMGTSTFSEYTVVADISVAKIDPLAPLDKVCLLGCGISTGYGAAVNTAKLEPGSVCAVFGLGGVGLAVIMGCKVAGASRIIGVDINKDKFARAKEFGATECINPQDFSKPIQEVLIEMTDGGVDYSFECIGNVKVMRAALEACHKGWGVSVVVGVAASGEEIATRPFQLVTGRTWKGTAFGGWKSVESVPKLVSEYMSKKIKVDEFVTHNLSFDEINKAFELMHSGKSIRTVVKI | 1.096 | 0.03978
sp¦Q14019¦COTL1_HUMAN (protein, UniProt Q14019 2-142, looked up) Coactosin-like protein: ATKIDKEACRAAYNLVRDDGSAVIWVTFKYDGSTIVPGEQGAEYQHFIQQCTDDVRLFAFVRFTTGDAMSKRSKFALITWIGENVSGLQRAKTGTDKTLVKEVVQNFAKEFVISDRKELEEDFIKSELKKAGGANYDAQTE | 1.126 | 0.0517
sp¦Q92900¦RENT1_HUMAN (protein, UniProt Q92900 1-1129, looked up) Regulator of nonsense …: MSVEAYGPSSQTLTFLDTEEAELLGADTQGSEFEFTDFTLPSQTQTPPGGPGGPGGGGAGGPGGAGAGAAAGQLDAQVGPEGILQNGAVDDSVAKTSQLLAELNFEEDEEDTYYTKDLPIHACSYCGIHDPACVVYCNTSKKWFCNGRGNTSGSHIVNHLVRAKCKEVTLHKDGPLGETVLECYNCGCRNVFLLGFIPAKADSVVVLLCRQPCASQSSLKDINWDSSQWQPLIQDRCFLSWLVKIPSEQEQLRARQITAQQINKLEELWKENPSATLEDLEKPGVDEEPQHVLLRYEDAYQYQNIFGPLVKLEADYDKKLKESQTQDNITVRWDLGLNKKRIAYFTLPKTDSGNEDLVIIWLRDMRLMQGDEICLRYKGDLAPLWKGIGHVIKVPDNYGDEIAIELRSSVGAPVEVTHNFQVDFVWKSTSFDRMQSALKTFAVDETSVSGYIYHKLLGHEVEDVIIKCQLPKRFTAQGLPDLNHSQVYAVKTVLQRPLSLIQGPPGTGKTVTSATIVYHLARQGNGPVLVCAPSNIAVDQLTEKIHQTGLKVVRLCAKSREAIDSPVSFLALHNQIRNMDSMPELQKLQQLKDETGELSSADEKRYRALKRTAERELLMNADVICCTCVGAGDPRLAKMQFRSILIDESTQATEPECMVPVVLGAKQLILVGDHCQLGPVVMCKKAAKAGLSQSLFERLVVLGIRPIRLQVQYRMHPALSAFPSNIFYEGSLQNGVTAADRVKKGFDFQWPQPDKPMFFYVTQGQEEIASSGTSYLNRTEAANVEKITTKLLKAGAKPDQIGIITPYEGQRSYLVQYMQFSGSLHTKLYQEVEIASVDAFQGREKDFIILSCVRANEHQGIGFLNDPRRLNVALTRARYGVIIVGNPKALSKQPLWNHLLNYYKEQKVLVEGPLNNLRESLMQFSKPRKLVNTINPGARFMTTAMYDAREAIIPGSVYDRSSQGRPSSMYFQTHDQIGMISAGPSHVAAMNIPIPFNLVMPPMPPPGYFGQANGPAAGRGTPKGKTGRGGRQKNRFGLPGPSQTNLPNSQASQDVASQPFSQGALTQGYISMSQPSQMSQPGLSQPELSQDSYLGDEFKSQIDVALSQDSTYQGERAYQHGGVTGLSQY | 1.105 | 0.04317
sp¦Q13177¦PAK2_HUMAN (protein, UniProt Q13177 2-524, looked up) Serine/threonine-protein …: SDNGELEDKPPAPPVRMSSTIFSTGGKDPLSANHSLKPLPSVPEEKKPRHKIISIFSGTEKGSKKKEKERPEISPPSDFEHTIHVGFDAVTGEFTGMPEQWARLLQTSNITKLEQKKNPQAVLDVLKFYDSNTVKQKYLSFTPPEKDGFPSGTPALNAKGTEAPAVVTEEEDDDEETAPPVIAPRPDHTKSIYTRSVIDPVPAPVGDSHVDGAAKSLDKQKKKTKMTDEEIMEKLRTIVSIGDPKKKYTRYEKIGQGASGTVFTATDVALGQEVAIKQINLQKQPKKELIINEILVMKELKNPNIVNFLDSYLVGDELFVVMEYLAGGSLTDVVTETCMDEAQIAAVCRECLQALEFLHANQVIHRDIKSDNVLLGMEGSVKLTDFGFCAQITPEQSKRSTMVGTPYWMAPEVVTRKAYGPKVDIWSLGIMAIEMVEGEPPYLNENPLRALYLIATNGTPELQNPEKLSPIFRDFLNRCLEMDVEKRGSAKELLQHPFLKLAKPLSSLTPLIMAAKEAMKSNR | 1.114 | 0.04699
sp¦P29218¦IMPA1_HUMAN (protein, UniProt P29218 1-277, looked up) Inositol monophosphatase 1: MADPWQECMDYAVTLARQAGEVVCEAIKNEMNVMLKSSPVDLVTATDQKVEKMLISSIKEKYPSHSFIGEESVAAGEKSILTDNPTWIIDPIDGTTNFVHRFPFVAVSIGFAVNKKIEFGVVYSCVEGKMYTARKGKGAFCNGQKLQVSQQEDITKSLLVTELGSSRTPETVRMVLSNMEKLFCIPVHGIRSVGTAAVNMCLVATGGADAYYEMGIHCWDVAGAGIIVTEAGGVLMDVTGGPFDLMSRRVIAANNRILAERIAKEIQVIPLQRDDED | 1.12 | 0.04931
